This note sets out measurements from paper PMC3914216.

Data set [1] concerns the target T1, HMGA1b (UniProt P17096-2 1-96). Briefly: competition.
In data set [2] the target is T1, HMGA1b. Description: competition. The source holds these as a separate data set.
Data set [3] concerns the target T1, HMGA1b. Briefly: EMSA.

B1: Mix10 (dsDNA)
DNA 1: GGGCGTGACTGAGCGCGGCGGCCCCGCG
DNA 2: CGCGGGGCCGCCGCGCTCAGTCACGCCC
For the molecule B1, in data set [1], the binding result was “no binding”.

B2: ATs10 (dsDNA)
DNA 1: GGGTTTTTTTTTTCGCGGCGGCCCCGCG
DNA 2: CGCGGGGCCGCCGCGAAAAAAAAAACCC
modifications: phosphorothioate linkages after each of the 10 T (T4-T13) of strand 1; complement unmodified
In the case of B2, the binding signal in data set [2] is ~1 ratio to ATf10.

B3: ATf10 (dsDNA)
DNA 1: CGCGGGGCCGCCGCGAAAAAAAAAAACCC
DNA 2: GGGTTTTTTTTTTTCGCGGCGGCCCCGCG
For the molecule B3, the binding result in data set [3] is on record as “binds”.

B4: CG10 (dsDNA)
DNA 1: GGGCCCCCCCCCCCGCGGCGGCCCCGCG
DNA 2: CGCGGGGCCGCCGCGGGGGGGGGGGCCC
With B4, the binding result in data set [1] was “no binding”.
